Reference: PMC9297946

Biological target: extracellular domain (25-250) of the human EPO receptor EPOR (human) (UniProt P19235)
Experiment: SEC + other: RP-HPLC-MS of the isolated complex after dissociation; proteins mixed in solution under dilute conditions (about 0.3 mg EPOR per mL); gel filtration over an analytical Superdex 75 column; complex peak analysed by non-reducing SDS-PAGE, then dissociated with 0.2 % TFA (1 h) and analysed by RP-HPLC-MS for the ratio of the two proteins

stoichiometry N | Substance
1 EPO:EPOR | EPO A (synthetic asialo glycoform of human erythropoietin 1-166 with three biantennary N-glycans terminating with galactose) (from UniProt P01588 28-193) (ligand)
1 EPO:EPOR | EPO S (synthetic sialylated glycoform of human erythropoietin 1-166 with three alpha-2,6-sialylated biantennary N-glycans) (from UniProt P01588 28-193) (ligand)
